Experimental data from patent US20150359849A1, “METHODS OF INCREASING NEURONAL CONNECTIVITY AND/OR TREATING A NEURODEGENERATIVE CONDITION” (PRESIDENT AND FELLOWS OF HARVARD COLLEGE, priority 2013, published 2015).

Tests used:
Assay type in all cases: cell-based
primary human neurons = assay: human axonal growth assay in microfluidic chambers
Procedure: FIGS. 5A-5G are experimental data showing that osteocrin promotes human axonal growth. FIG. 5A is a schematic diagram of microfluidic chambers, e.g., for use in a human axonal growth assay. The bracket denotes the area where images were approximately acquired. In FIGS. 5B-5E, primary human neurons were cultured for 21 days in vitro in the microfluidic chamber with (FIG. 5C and FIG. 5E) and without (FIG. 5B and FIG. 5D) recombinant OSTN (˜100 ng/ml). FIGS. 5B-5C are brightfield images of axons imaged live by a bright-field microscope. FIGS. 5D-5E are fluorescent images of axons fixed and immunostained with axonal marker Neurofilament (NF). FIG. 5F is a quantitative bar graph showing axonal length extension of OSTN-treated neurons, normalized to the control experiment. FIG. 5G is a quantitative bar graph showing the number of MAP2-positive neurons per measured area inside the chamber. The data are represented as mean±SEM.
To assess the effect of OSTN on axonal outgrowth, a human axonal growth assay was developed by using microfluidic chambers (e.g., obtained from Xona Microfluidics, Temecula, Calif.) (FIG. 5A). In this assay, primary human neurons were seeded in the presence or absence of OSTN into the microfluidic chambers and cultured for a sufficient period of time to allow their axons grow through microchannels that were designed to be small enough to only allow axons, not dendrites, to pass through. For example, after about 21 days, axons were imaged both live (FIGS. 5B-5C) and after stained with an axonal marker, e.g., an anti-neurofilament antibody (FIGS. 5D-5E). Human axons grew slowly in the absence of OSTN and at DIV21 only few axonal processes were visible (FIGS. 5B and 5D). […] These findings shown that human-specific activity-regulated factor OSTN is a regulator of the axonal growth in human neurons.

human neurons = assay: neuronal survival assay: number of MAP2 positive cells; details: about 80,000 to about 130,000 cells/cm^2, where neighboring neurons could provide trophic support
Procedure: FIGS. 4A-4C are experimental data showing that osteocrin promotes human neuronal survival. FIGS. 4A-4B are fluorescent images showing culture of primary human neurons with or without recombinant OSTN. In FIGS. 4A-4B, primary human neurons were cultured for 10 days in vitro with and without recombinant OSTN (˜50 ng/ml), fixed and immunostained with neuronal marker MAP2 and nuclear marker DAPI. FIG. 4C is a quantitative bar graph showing the number of MAP2 positive neurons per measured area at DIV10 in human neuronal cultures with or without recombinant OSTN. The data are represented as mean±SEM. As used herein throughout the specification, the abbreviation “DIV” stands for Day In Vitro, i.e., the number of days neurons have grown in culture.
As presented herein, the inventors discovered OSTN as a human-specific activity-regulated secreted molecule. […] Neurons were grown, e.g., at a density of about 40,000 cells/cm^2, in the presence or absence of OSTN (e.g., ˜50 ng/ml) for a period of time, e.g., about 6 days between DIV4 to DIV10. After the period of time (e.g., about 6 days), samples were fixed and stained for dendritic and/or nuclear markers (FIGS. 4A-4B). Neuronal survival was assayed, for example, by quantifying the number of MAP2 positive cells after the neurons were cultured with or without OSTN for a pre-determined period of time (e.g., detected at DIV10). […]

[1] = system: human primary neuronal cultures; assay: neuronal connectivity assay: human primary neuronal cultures fixed and stained for dendritic and synaptic markers
Procedure: FIGS. 3A-3E are experimental data showing that osteocrin promotes human neuronal connectivity. FIGS. 3A-3D are fluorescent images of primary human neurons fixed and immunostained with neuronal and synaptic markers, e.g., microtubule-associated protein 2 (MAP2), postsynaptic density protein-95 (PSD95) and synapsin after cultured for about 10 days in vitro with and without recombinant OSTN (˜50 ng/mL). […] FIG. 3E is a bar graph showing quantification results of excitatory synapse number in human neuronal cultures with increasing concentrations (˜0.5-˜50 ng/mL) of recombinant OSTN. In particular, the human neuronal cultures were treated with recombinant OSTN at a concentration of ˜0.5 ng/mL, ˜5 ng/mL, or ˜50 ng/mL. The data are represented as mean±SEM from n=5.
No role has previously been described for OSTN in nervous system development or particularly human nervous system development; however, OSTN has been reported to be secreted from bone-forming cells to promote the proliferation of bone precursors. In order to assess the roles of OSTN in human neuronal function, human primary neuronal cultures were treated with increasing concentrations of an osteocrin-inducing agent, e.g., but not limited to, a recombinant human OSTN protein. After about 6 days, samples were fixed and stained for neuronal markers, e.g., dendritic and/or synaptic markers, to examine effects on neuronal connectivity (FIGS. 3A-3D). Neuronal excitatory synaptic connections can be assayed by any methods known in the art, e.g., by quantifying the density of closely apposed puncta labeling pre- and post-synaptic markers along neuronal dendrites.

osteocrin expression = assay: induction of osteocrin expression in human cultures; details: addition to human cultures
[2] = recombinant OSTN ~50 ng/mL, about 10 days in vitro

B1: OSTN: recombinant human osteocrin protein; a secreted protein produced by cells of the osteoblast lineage (protein, listed as Homo sapiens)
chain: MLDWRLASAHFILAVTLTLWSSGKVLSVDVTTTEAFDSGVIDVQSTPTVREEKSATDLTAKLLLLDELVSLENDVIETKKKRSFSGFGSPLDRLSAGSVDHKGKQRKVVDHPKRRFGIPMDRIGRNRLSNSRG
Q: For B1, which “number of neuronal cells (MAP2-positive) in the chambers with OSTN treatment” value (primary human neurons; recombinant OSTN ~100 ng/ml, DIV21) is on record?
A: did not appear to change

Q: And the “axonal growth in the presence of OSTN” value (primary human neurons; recombinant OSTN ~100 ng/ml, about 21 days in vitro, imaged live and neurofilament stained)?
A: neurons grow axons of dramatic lengths and complexities

Q: What about the “increase in axonal growth of human neurons as compared to neural cells without treatment of OSTN” value (primary human neurons; summary statement in the description) of the same molecule?
A: at least 2 fold

Q: What about the “significant increase in neuronal survival at standard or higher densities” value (human neurons) of the same molecule?
A: not observed

Q: What about the “dendritic density following OSTN treatment” value ([1]; data not shown) of the same molecule?
A: Increases were also observed

Q: And the “total dendritic length following OSTN treatment” value ([1]; data not shown)?
A: Increases were also observed

Q: What about the “expression of PSD95 and synapsin (immunostaining) compared to control neurons” value [1, 2] of the same molecule?
A: expressed higher levels of PSD95 and synapsins

Q: And the “network of microtubules (MAP2 immunostaining) compared to control neurons” value [1, 2]?
A: formed a denser network of microtubules

Q: And the “increase in excitatory synapse density as compared to mock-treated controls” value ([1]; recombinant human OSTN protein, increasing concentrations (~0.5-~50 ng/mL), after about 6 days, closely apposed pre- and post-synaptic puncta along dendrites)?
A: at least 3 fold

B2: BDNF: a neuronal activity-regulated secreted factor (protein, UniProt P23560 19-247, looked up)
Neurotrophic factor BDNF …: APMKEANIRGQGGLAYPGVRTHGTLESVNGPKAGSRGLTSLADTFEHVIEELLDEDQKVRPNEENNKDADLYTSRVMLSSQVPLEPPLLFLLEEYKNYLDAANMSMRVRRHSDPARRGELSVCDSISEWVTAADKKTAVDMSGGTVTVLEKVPVSKGQLKQYFYETKCNPMGYTKEGCRGIDKRHWNSQCRTTQSYVRALTMDSKKRIGWRFIRIDTSCVCTLTIKRGR
Q: How did the “effect on induction of osteocrin expression” value (osteocrin expression) turn out when B2 was run?
A: does not have any significant effect
